Measured values published in the RNAGym collection of RNA variant scans (doi:10.1038/ncomms11558).

B1: mRNA-splicing (parent)
chain: GAUCCAGAUCUAACUUGGGGUGGCUUUGUCUUCUUCUUUUGCCAAUUCCACUAAUUGUUUGGG

Variants of: B1
Assay: exon inclusion enrichment score (log2 ratio to wild type); higher = more inclusion; FAS exon 6 minigene, HEK293

Variant | exon inclusion enrichment score
GAUCCAGAUCUAACUUGGGGUGGCUUUGUCUUCUUCUUUUGCCAAUUCGACUAAUUGUUUGGG [C49G] | 0.869
GAUCCAGAUCUAACUUGGGGUGGCUUUGUCUUCUUCUUUUGCCAAUUCAACUAAUUGUUUGGG [C49A] | 1.46
GAUCCAGAUCUAACUUGGGGUGGCUUUGUCUUCUUCUUUUGCCAAUUCUACUAAUUGUUUGGG [C49U] | -0.226
GAUCCAGAUCUAACUUGGGGUGGCUUUGUCUUCUUCUUUUGCGAAUUCCACUAAUUGUUUGGG [C43G] | 0.061
GAUCCAGAUCUAACUUGGGGUGGCUUUGUCUUCUUCUUUUGCUAAUUCCACUAAUUGUUUGGG [C43U] | -2.69
GAUCCAGAUCUAACUUGGGGUGGCUUUGUCUUCUUCUUUUGCAAAUUCCACUAAUUGUUUGGG [C43A] | -0.47
GAUCCAGAUCUAACUUGGGGUGGCUUUGUCUUCUUCUUUUGCCAAUUCCACUAAUUAUUUGGG [G57A] | -0.066
GAUCCAGAUCUAACUUGGGGUGGCUUUGUCUUCUUCUUUUGCCAAUUCCACUAAUUCUUUGGG [G57C] | -0.537
GAUCCAGAUCUAACUUGGGGUGGCUUUGUCUUCUUCUUUCGCCAAUUCCACUAAUUGUUUGGG [U40C] | 0.287
GAUCCAGAUCUAACUUGGGGUGGCUUUGUCUUCUUCUUUGGCCAAUUCCACUAAUUGUUUGGG [U40G] | 0.275
GAUCCAGAUCUAACUUGGGGUGGCUUUGUCUUCUUCUUUAGCCAAUUCCACUAAUUGUUUGGG [U40A] | -2.39
GAUCCAGAUCUAACUUGGGGUGGCUUUGUCUUCUUCUUUUGCCUAUUCCACUAAUUGUUUGGG [A44U] | -1.32
GAUCCAGAUCUAACUUGGGGUGGCUUUGUCUUCUUCUUUUGCCCAUUCCACUAAUUGUUUGGG [A44C] | -0.731
GAUCCAGAUCUAACUUGGGGUGGCUUUGUCUUCUUCUUUUGCCGAUUCCACUAAUUGUUUGGG [A44G] | 0.314
GAUCCAGAUCUAACUUGGGGUGGCUUUGUCUUCUUCUUUUGCCAAUUCCACUAUUUGUUUGGG [A54U] | -0.013
GAUCCAGAUCUAACUUGGGGUGGCUUUGUCUUCUUCUUUUGCCAAUUCCACUAGUUGUUUGGG [A54G] | -0.319
GAUCCAGAUCUAACUUGGGGUGGCUUUGUCUUCUUCUUUUGCCAAUUCCACUACUUGUUUGGG [A54C] | 0.187
GAUCCAGAUCUAACUUGGGGUGGCUUUGUCUUCUUCUUUUGCCAAUUCCUCUAAUUGUUUGGG [A50U] | -1.12
GAUCCAGAUCUAACUUGGGGUGGCUUUGUCUUCUUCUUUUGCCAAUUCCCCUAAUUGUUUGGG [A50C] | -3.91
GAUCCAGAUCUAACUUGGGGUGGCUUUGUCUUCUUCUUUUGCCAAUUCCGCUAAUUGUUUGGG [A50G] | 0.131
GAUCCAGAUCUAACUUGGGGUGGCUUUGUCGUCUUCUUUUGCCAAUUCCACUAAUUGUUUGGG [U31G] | -1.2
GAUCCAGAUCUAACUUGGGGUGGCUUUGUCAUCUUCUUUUGCCAAUUCCACUAAUUGUUUGGG [U31A] | 0.242

Variant | exon inclusion enrichment score
GAUCCAGAUCUAACUUGGGGUGGCUUUGUCCUCUUCUUUUGCCAAUUCCACUAAUUGUUUGGG [U31C] | -0.076
GAUCCAGAUCUAACUUGGGGUGGCUUUGUCUUCUUCUUUUGCCAAUUGCACUAAUUGUUUGGG [C48G] | -1.23
GAUCCAGAUCUAACUUGGGGUGGCUUUGUCUUCUUCUUUUGCCAAUUUCACUAAUUGUUUGGG [C48U] | -2.35
GAUCCAGAUCUAACUUGGGGUGGCUUUGUCUUCUUCUUUUGCCAAUUACACUAAUUGUUUGGG [C48A] | -1.74
GAUCCAGAUCUAACUUGGGGUGGCUUUGUUUUCUUCUUUUGCCAAUUCCACUAAUUGUUUGGG [C30U] | -2.3
GAUCCAGAUCUAACUUGGGGUGGCUUUGUAUUCUUCUUUUGCCAAUUCCACUAAUUGUUUGGG [C30A] | -0.973
GAUCCAGAUCUAACUUGGGGUGGCUUUGUGUUCUUCUUUUGCCAAUUCCACUAAUUGUUUGGG [C30G] | -0.286
GAUCCAGAUCUAACUUGGGGUGGCUUUGUCUUCUUCUUUUGCCAAUUCCACAAAUUGUUUGGG [U52A] | 0.166
GAUCCAGAUCUAACUUGGGGUGGCUUUGUCUUCUUCUUUUGCCAAUUCCACCAAUUGUUUGGG [U52C] | 0.564
GAUCCAGAUCUAACUUGGGGUGGCUUUGUCUUCUUCUUUUGCCAAUUCCACGAAUUGUUUGGG [U52G] | 0.635
GAUCCAGAUCUAACUUGGGGUGGCUUUGUCUUCUCCUUUUGCCAAUUCCACUAAUUGUUUGGG [U35C] | 0.127
GAUCCAGAUCUAACUUGGGGUGGCUUUGUCUUCUACUUUUGCCAAUUCCACUAAUUGUUUGGG [U35A] | -0.045
GAUCCAGAUCUAACUUGGGGUGGCUUUGUCUUCUGCUUUUGCCAAUUCCACUAAUUGUUUGGG [U35G] | 0.167
GAUCCAGAUCUAACUUGGGGUGGCUUUGUCUUCUUCGUUUGCCAAUUCCACUAAUUGUUUGGG [U37G] | 0.33
GAUCCAGAUCUAACUUGGGGUGGCUUUGUCUUCUUCCUUUGCCAAUUCCACUAAUUGUUUGGG [U37C] | 0.225
GAUCCAGAUCUAACUUGGGGUGGCUUUGUCUUCUUCAUUUGCCAAUUCCACUAAUUGUUUGGG [U37A] | 0.26
GAUCCAGAUCUAACUUGGGGUGGCUUUGUCUUCUUUUUUUGCCAAUUCCACUAAUUGUUUGGG [C36U] | -2.31
GAUCCAGAUCUAACUUGGGGUGGCUUUGUCUUCUUGUUUUGCCAAUUCCACUAAUUGUUUGGG [C36G] | -0.112
GAUCCAGAUCUAACUUGGGGUGGCUUUGUCUUCUUAUUUUGCCAAUUCCACUAAUUGUUUGGG [C36A] | -0.688
GAUCCAGAUCUAACUUGGGGUGGCUUUGUCUUCUUCUUUUGACAAUUCCACUAAUUGUUUGGG [C42A] | -0.179
GAUCCAGAUCUAACUUGGGGUGGCUUUGUCUUCUUCUUUUGGCAAUUCCACUAAUUGUUUGGG [C42G] | -0.175
GAUCCAGAUCUAACUUGGGGUGGCUUUGUCUUCUUCUUUUGUCAAUUCCACUAAUUGUUUGGG [C42U] | -1.2

Variant | exon inclusion enrichment score
GAUCCAGAUCUAACUUGGGGUGGCUUUGUCUUGUUCUUUUGCCAAUUCCACUAAUUGUUUGGG [C33G] | -2.4
GAUCCAGAUCUAACUUGGGGUGGCUUUGUCUUAUUCUUUUGCCAAUUCCACUAAUUGUUUGGG [C33A] | -3.75
GAUCCAGAUCUAACUUGGGGUGGCUUUGUCUUUUUCUUUUGCCAAUUCCACUAAUUGUUUGGG [C33U] | -4.54
GAUCCAGAUCUAACUUGGGGUGGCUUUGUCUUCUUCUUUUGCCAAUUCCACUAAGUGUUUGGG [U55G] | 0.117
GAUCCAGAUCUAACUUGGGGUGGCUUUGUCUUCUUCUUUUGCCAAUUCCACUAACUGUUUGGG [U55C] | 0.069
GAUCCAGAUCUAACUUGGGGUGGCUUUGUCUUCUUCUUUUGCCAAUUCCACUAAAUGUUUGGG [U55A] | 0.386
GAUCCAGAUCUAACUUGGGGUGGCUUUGUCUUCUUCUUUUGCCAAUACCACUAAUUGUUUGGG [U47A] | -0.214
GAUCCAGAUCUAACUUGGGGUGGCUUUGUCUUCUUCUUUUGCCAAUCCCACUAAUUGUUUGGG [U47C] | -2.08
GAUCCAGAUCUAACUUGGGGUGGCUUUGUCUUCUUCUUUUGCCAAUGCCACUAAUUGUUUGGG [U47G] | -1.62
GAUCCAGAUCUAACUUGGGGUGGCUUUGUCUUCUUCUUUUGCCAACUCCACUAAUUGUUUGGG [U46C] | 0.336
GAUCCAGAUCUAACUUGGGGUGGCUUUGUCUUCUUCUUUUGCCAAAUCCACUAAUUGUUUGGG [U46A] | 0.041
GAUCCAGAUCUAACUUGGGGUGGCUUUGUCUUCUUCUUUUGCCAAGUCCACUAAUUGUUUGGG [U46G] | 0.344
GAUCCAGAUCUAACUUGGGGUGGCUUUGUCUGCUUCUUUUGCCAAUUCCACUAAUUGUUUGGG [U32G] | 0.176
GAUCCAGAUCUAACUUGGGGUGGCUUUGUCUACUUCUUUUGCCAAUUCCACUAAUUGUUUGGG [U32A] | -0.129
GAUCCAGAUCUAACUUGGGGUGGCUUUGUCUCCUUCUUUUGCCAAUUCCACUAAUUGUUUGGG [U32C] | -0.05
GAUCCAGAUCUAACUUGGGGUGGCUUUGUCUUCCUCUUUUGCCAAUUCCACUAAUUGUUUGGG [U34C] | -0.17
GAUCCAGAUCUAACUUGGGGUGGCUUUGUCUUCAUCUUUUGCCAAUUCCACUAAUUGUUUGGG [U34A] | -0.179
GAUCCAGAUCUAACUUGGGGUGGCUUUGUCUUCGUCUUUUGCCAAUUCCACUAAUUGUUUGGG [U34G] | 0.283
GAUCCAGAUCUAACUUGGGGUGGCUUUGUCUUCUUCUUUUGCCAAUUCCACUAAUCGUUUGGG [U56C] | 0.215
GAUCCAGAUCUAACUUGGGGUGGCUUUGUCUUCUUCUUUUGCCAAUUCCACUAAUAGUUUGGG [U56A] | -0.713
GAUCCAGAUCUAACUUGGGGUGGCUUUGUCUUCUUCUUUUGCCAAUUCCACUAAUGGUUUGGG [U56G] | 0.059
GAUCCAGAUCUAACUUGGGGUGGCUUUGUCUUCUUCUUUUGCCAUUUCCACUAAUUGUUUGGG [A45U] | -1.33

Variant | exon inclusion enrichment score
GAUCCAGAUCUAACUUGGGGUGGCUUUGUCUUCUUCUUUUGCCACUUCCACUAAUUGUUUGGG [A45C] | -3.69
GAUCCAGAUCUAACUUGGGGUGGCUUUGUCUUCUUCUUUUGCCAGUUCCACUAAUUGUUUGGG [A45G] | -0.008
GAUCCAGAUCUAACUUGGGGUGGCUUUGUCUUCUUCUUUUGCCAAUUCCAGUAAUUGUUUGGG [C51G] | 0.038
GAUCCAGAUCUAACUUGGGGUGGCUUUGUCUUCUUCUUUUGCCAAUUCCAUUAAUUGUUUGGG [C51U] | -1.53
GAUCCAGAUCUAACUUGGGGUGGCUUUGUCUUCUUCUUUUGCCAAUUCCAAUAAUUGUUUGGG [C51A] | -1.68
GAUCCAGAUCUAACUUGGGGUGGCUUUGUCUUCUUCUUAUGCCAAUUCCACUAAUUGUUUGGG [U39A] | 0.361
GAUCCAGAUCUAACUUGGGGUGGCUUUGUCUUCUUCUUCUGCCAAUUCCACUAAUUGUUUGGG [U39C] | 0.236
GAUCCAGAUCUAACUUGGGGUGGCUUUGUCUUCUUCUUGUGCCAAUUCCACUAAUUGUUUGGG [U39G] | 0.267
GAUCCAGAUCUAACUUGGGGUGGCUUUGGCUUCUUCUUUUGCCAAUUCCACUAAUUGUUUGGG [U29G] | -3.82
GAUCCAGAUCUAACUUGGGGUGGCUUUGCCUUCUUCUUUUGCCAAUUCCACUAAUUGUUUGGG [U29C] | 0.119
GAUCCAGAUCUAACUUGGGGUGGCUUUGUCUUCUUCUCUUGCCAAUUCCACUAAUUGUUUGGG [U38C] | 0.106
GAUCCAGAUCUAACUUGGGGUGGCUUUGUCUUCUUCUAUUGCCAAUUCCACUAAUUGUUUGGG [U38A] | -0.025
GAUCCAGAUCUAACUUGGGGUGGCUUUGUCUUCUUCUGUUGCCAAUUCCACUAAUUGUUUGGG [U38G] | 0.274
GAUCCAGAUCUAACUUGGGGUGGCUUUGUCUUCUUCUUUUUCCAAUUCCACUAAUUGUUUGGG [G41U] | -1.24
GAUCCAGAUCUAACUUGGGGUGGCUUUGUCUUCUUCUUUUACCAAUUCCACUAAUUGUUUGGG [G41A] | -0.772
GAUCCAGAUCUAACUUGGGGUGGCUUUGUCUUCUUCUUUUCCCAAUUCCACUAAUUGUUUGGG [G41C] | -1.66
GAUCCAGAUCUAACUUGGGGUGGCUUUGUCUUCUUCUUUUGCCAAUUCCACUGAUUGUUUGGG [A53G] | 0.229
GAUCCAGAUCUAACUUGGGGUGGCUUUGUCUUCUUCUUUUGCCAAUUCCACUCAUUGUUUGGG [A53C] | -0.152
GAUCCAGAUCUAACUUGGGGUGGCUUUGUCUUCUUCUUUUGCCAAUUCCACUUAUUGUUUGGG [A53U] | -0.046
